Measurements from patent US20230051304A1 (Regeneron, published 2023).
Residue numbers refer to the chain shown, from its start.

B1: Fc-IL12(mutein 12) (Fc fusion)
chain: ESKYGPPCPPCPAPPVAGPSVFLFPPKPKDTLMISRTPEVTCVVVDVSQEDPEVQFNWYVDGVEVHNAKTKPREEQFNSTYRVVSVLTVLHQDWLNGKEYKCKVSNKGLPSSIEKTISKAKGQPREPQVYTLPPSQEEMTKNQVSLTCLVKGFYPSDIAVEWESNGQPENNYKTTPPVLDSDGSFFLYSRLTVDKSRWQEGNVFSCSVMHEALHNHYTQKSLSLSLGKGGGGSGGGGSGGGGSNGIWSTEILKNFKNKTFLKCEAPNYSGRFTCSWLVQRNMDLKFNIKSSSSSPDSRAVTCGMASLSAEKVTLDQRDYEKYSVSCQEDVTCPTAEETLPIELALEARQQNKYENYSTSFFIRDIIKPDPPKNLQMKPLKNSQVEVSWEYPDSWSTPHSYFSLKFFVRIQRKKEKMKETEEGCNQKGAFLVEKTSTEVQCKGGNVCVQAQDRYYNSSCSKWACVPCRVRSGGGGSGGGGSGGGGSRVIPVSGPARCLSQSRNLLKTTDDMVKTAREKLKHYSCTAEDIDHEDITRDQTSTLKTCLPLELHKNESCLATRETSSTTRGSCLPPQKTSLMMTLCLGSIYEDLKMYQTEFQAINAALQNHNHQQIILDKGMLVAIDELMQSLNHNGETLRQKPPVGEADPYRVKMKLCILLHAFSTRVVTINRVMGYLSSA
B2: Fc-IL12(mutein 1) (Fc fusion)
chain: ESKYGPPCPPCPAPPVAGPSVFLFPPKPKDTLMISRTPEVTCVVVDVSQEDPEVQFNWYVDGVEVHNAKTKPREEQFNSTYRVVSVLTVLHQDWLNGKEYKCKVSNKGLPSSIEKTISKAKGQPREPQVYTLPPSQEEMTKNQVSLTCLVKGFYPSDIAVEWESNGQPENNYKTTPPVLDSDGSFFLYSRLTVDKSRWQEGNVFSCSVMHEALHNHYTQKSLSLSLGKGGGGSGGGGSGGGGSMWELEKDVYVVEVDWTPDAPGETVNLTCDTPEEDDITWTSDQRHGVIGSGKTLTITVKEFLDAGQYTCHKGGETLSHSHLLLHKKENGIWSTEILKNFKNKTFLKCEAPNYSGRFTCSWLVQRNMDLKFNIKSSSSSPDSRAVTCGMASLSAEKVTLDQRDYEKYSVSCQEDVTCPTAEETLPIELALEARQQNKYENYSTSFFIRDIIKPDPPKNLQMKPLKNSQVEVSWEYPDSWSTPHSYFSLKFFVRIQRKKEKMKETEEGCNQKGAFLVEKTSTEVQCKGGNVCVQAQDRYYNSSCSKWACVPCRVRSGGGGSGGGGSGGGGSRVIPVSGPARCLSQSRNLLKTTDDMVKTAREKLKHYSCTAEDIDHEDITRDQTSTLKTCLPLELHKNESCLATRETSSTTRGSCLPPQKTSLMMTLCLGSIYEDLKMYQTEFQAINAALQNHNHQQIILDKGMLVAIDELMQSLNHNGETLRQKPPVGEADPARVKMKLCILLHAFSTRVVTINRVMGYLSSA
B3: Fc-IL12(mutein 2) (Fc fusion)
chain: B2 chain with A734V
B4: Fc-IL12(mutein 8) (Fc fusion)
chain: B2 chain with W258A, A734Y
B5: Fc-IL12(mutein 3) (Fc fusion)
chain: B2 chain with A734R
B6: Fc-IL12(mutein 11) (Fc fusion)
chain: B2 chain with E336A, K339A, K342A, K344A, A734Y
B7: Fc-IL12(mutein 4) (Fc fusion)
chain: B2 chain with A734E
B8: IL12(mutein 13)-Fc (Fc fusion)
chain: NGIWSTEILKNFKNKTFLKCEAPNYSGRFTCSWLVQRNMDLKFNIKSSSSSPDSRAVTCGMASLSAEKVTLDQRDYEKYSVSCQEDVTCPTAEETLPIELALEARQQNKYENYSTSFFIRDIIKPDPPKNLQMKPLKNSQVEVSWEYPDSWSTPHSYFSLKFFVRIQRKKEKMKETEEGCNQKGAFLVEKTSTEVQCKGGNVCVQAQDRYYNSSCSKWACVPCRVRSGGGGSGGGGSGGGGSRVIPVSGPARCLSQSRNLLKTTDDMVKTAREKLKHYSCTAEDIDHEDITRDQTSTLKTCLPLELHKNESCLATRETSSTTRGSCLPPQKTSLMMTLCLGSIYEDLKMYQTEFQAINAALQNHNHQQIILDKGMLVAIDELMQSLNHNGETLRQKPPVGEADPYRVKMKLCILLHAFSTRVVTINRVMGYLSSAGGGGSGGGGSGGGGSESKYGPPCPPCPAPPVAGPSVFLFPPKPKDTLMISRTPEVTCVVVDVSQEDPEVQFNWYVDGVEVHNAKTKPREEQFNSTYRVVSVLTVLHQDWLNGKEYKCKVSNKGLPSSIEKTISKAKGQPREPQVYTLPPSQEEMTKNQVSLTCLVKGFYPSDIAVEWESNGQPENNYKTTPPVLDSDGSFFLYSRLTVDKSRWQEGNVFSCSVMHEALHNHYTQKSLSLSLGK
B9: Bivalent: Fc-IL12*(p40*-p35*) (Fc fusion)
chain: B2 chain with C418S, C641S, A734Y
B10: Bivalent: IL12(p40-p35)-Fc (Fc fusion)
chain: MWELEKDVYVVEVDWTPDAPGETVNLTCDTPEEDDITWTSDQRHGVIGSGKTLTITVKEFLDAGQYTCHKGGETLSHSHLLLHKKENGIWSTEILKNFKNKTFLKCEAPNYSGRFTCSWLVQRNMDLKFNIKSSSSSPDSRAVTCGMASLSAEKVTLDQRDYEKYSVSCQEDVTCPTAEETLPIELALEARQQNKYENYSTSFFIRDIIKPDPPKNLQMKPLKNSQVEVSWEYPDSWSTPHSYFSLKFFVRIQRKKEKMKETEEGCNQKGAFLVEKTSTEVQCKGGNVCVQAQDRYYNSSCSKWACVPCRVRSGGGGSGGGGSGGGGSRVIPVSGPARCLSQSRNLLKTTDDMVKTAREKLKHYSCTAEDIDHEDITRDQTSTLKTCLPLELHKNESCLATRETSSTTRGSCLPPQKTSLMMTLCLGSIYEDLKMYQTEFQAINAALQNHNHQQIILDKGMLVAIDELMQSLNHNGETLRQKPPVGEADPYRVKMKLCILLHAFSTRVVTINRVMGYLSSAGGGGSGGGGSGGGGSESKYGPPCPPCPAPPVAGPSVFLFPPKPKDTLMISRTPEVTCVVVDVSQEDPEVQFNWYVDGVEVHNAKTKPREEQFNSTYRVVSVLTVLHQDWLNGKEYKCKVSNKGLPSSIEKTISKAKGQPREPQVYTLPPSQEEMTKNQVSLTCLVKGFYPSDIAVEWESNGQPENNYKTTPPVLDSDGSFFLYSRLTVDKSRWQEGNVFSCSVMHEALHNHYTQKSLSLSLGK
B11: Bivalent: IL12*(p40*-p35*)-Fc (Fc fusion)
chain: B10 chain with C175S, C398S
B12: Monovalent: IL12(p35xp40)-Fc (Fc fusion)
chain 1: RVIPVSGPARCLSQSRNLLKTTDDMVKTAREKLKHYSCTAEDIDHEDITRDQTSTLKTCLPLELHKNESCLATRETSSTTRGSCLPPQKTSLMMTLCLGSIYEDLKMYQTEFQAINAALQNHNHQQIILDKGMLVAIDELMQSLNHNGETLRQKPPVGEADPYRVKMKLCILLHAFSTRVVTINRVMGYLSSAGGGGSGGGGSGGGGSESKYGPPCPPCPAPPVAGPSVFLFPPKPKDTLMISRTPEVTCVVVDVSQEDPEVQFNWYVDGVEVHNAKTKPREEQFNSTYRVVSVLTVLHQDWLNGKEYKCKVSNKGLPSSIEKTISKAKGQPREPQVYTLPPSQEEMTKNQVSLWCLVKGFYPSDIAVEWESNGQPENNYKTTPPVLDSDGSFFLYSRLTVDKSRWQEGNVFSCSVMHEALHNHYTQKSLSLSLGK
chain 2: MWELEKDVYVVEVDWTPDAPGETVNLTCDTPEEDDITWTSDQRHGVIGSGKTLTITVKEFLDAGQYTCHKGGETLSHSHLLLHKKENGIWSTEILKNFKNKTFLKCEAPNYSGRFTCSWLVQRNMDLKFNIKSSSSSPDSRAVTCGMASLSAEKVTLDQRDYEKYSVSCQEDVTCPTAEETLPIELALEARQQNKYENYSTSFFIRDIIKPDPPKNLQMKPLKNSQVEVSWEYPDSWSTPHSYFSLKFFVRIQRKKEKMKETEEGCNQKGAFLVEKTSTEVQCKGGNVCVQAQDRYYNSSCSKWACVPCRVRSGGGGSGGGGSGGGGSESKYGPPCPPCPAPPVAGPSVFLFPPKPKDTLMISRTPEVTCVVVDVSQEDPEVQFNWYVDGVEVHNAKTKPREEQFNSTYRVVSVLTVLHQDWLNGKEYKCKVSNKGLPSSIEKTISKAKGQPREPQVYTLPPSQEEMTKNQVSLSCAVKGFYPSDIAVEWESNGQPENNYKTTPPVLDSDGSFFLVSRLTVDKSRWQEGNVFSCSVMHEALHNRFTQKSLSLSPGK

These binders were tested against T1, murine IL12 receptor complex (IL12Rβ1 and IL12Rβ2) (mouse, UniProt Q60837 20-738; P97378 24-874) (assay: cell-based or functional assay).
T1 sequence (Q60837 20-738, chain 1 of 2): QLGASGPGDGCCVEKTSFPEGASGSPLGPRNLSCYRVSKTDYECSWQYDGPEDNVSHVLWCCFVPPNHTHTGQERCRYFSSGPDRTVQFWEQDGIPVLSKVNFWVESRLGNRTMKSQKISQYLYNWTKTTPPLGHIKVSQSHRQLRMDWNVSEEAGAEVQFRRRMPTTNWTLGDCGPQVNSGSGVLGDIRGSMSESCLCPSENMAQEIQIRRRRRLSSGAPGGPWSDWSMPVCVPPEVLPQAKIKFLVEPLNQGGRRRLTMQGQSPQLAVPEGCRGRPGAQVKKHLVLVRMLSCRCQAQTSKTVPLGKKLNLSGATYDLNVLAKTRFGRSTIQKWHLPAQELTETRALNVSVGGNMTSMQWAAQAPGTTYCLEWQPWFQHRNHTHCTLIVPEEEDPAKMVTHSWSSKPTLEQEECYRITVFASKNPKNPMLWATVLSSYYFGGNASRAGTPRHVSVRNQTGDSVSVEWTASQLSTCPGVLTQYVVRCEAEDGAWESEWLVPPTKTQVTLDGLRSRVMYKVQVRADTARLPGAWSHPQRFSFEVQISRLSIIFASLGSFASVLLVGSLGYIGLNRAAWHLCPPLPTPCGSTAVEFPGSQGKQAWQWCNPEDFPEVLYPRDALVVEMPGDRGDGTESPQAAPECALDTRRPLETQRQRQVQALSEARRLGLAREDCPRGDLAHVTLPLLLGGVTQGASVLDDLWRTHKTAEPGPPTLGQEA
T1 sequence (P97378 24-874, chain 2 of 2): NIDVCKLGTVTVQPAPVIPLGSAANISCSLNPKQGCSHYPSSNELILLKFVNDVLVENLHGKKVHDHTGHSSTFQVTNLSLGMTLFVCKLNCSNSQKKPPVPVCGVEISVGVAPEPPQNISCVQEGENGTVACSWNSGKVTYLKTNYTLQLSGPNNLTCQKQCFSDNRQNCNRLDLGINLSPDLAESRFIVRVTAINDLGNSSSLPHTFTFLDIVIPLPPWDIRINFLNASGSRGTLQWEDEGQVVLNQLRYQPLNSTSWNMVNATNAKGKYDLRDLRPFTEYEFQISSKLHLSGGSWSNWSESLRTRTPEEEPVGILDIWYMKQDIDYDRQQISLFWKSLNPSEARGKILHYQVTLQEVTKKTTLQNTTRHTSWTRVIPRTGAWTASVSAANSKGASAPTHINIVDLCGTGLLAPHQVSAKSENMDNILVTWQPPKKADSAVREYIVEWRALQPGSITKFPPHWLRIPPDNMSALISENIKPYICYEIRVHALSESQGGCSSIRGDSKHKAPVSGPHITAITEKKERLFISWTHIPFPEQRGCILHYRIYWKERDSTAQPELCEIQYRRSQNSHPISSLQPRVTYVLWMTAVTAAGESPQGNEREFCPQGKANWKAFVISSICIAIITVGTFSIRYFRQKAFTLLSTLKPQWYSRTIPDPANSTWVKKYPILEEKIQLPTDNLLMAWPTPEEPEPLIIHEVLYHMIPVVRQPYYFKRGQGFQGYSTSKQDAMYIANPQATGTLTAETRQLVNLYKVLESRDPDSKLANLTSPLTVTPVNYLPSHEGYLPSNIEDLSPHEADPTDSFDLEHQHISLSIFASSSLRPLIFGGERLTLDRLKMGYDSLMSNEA

Fold induction at 20 nM; STAT3-Luc reporter, CTLL2/STAT3-Luc cells [fold]	Max fold induction; STAT3-Luc reporter, CTLL2/STAT3-Luc cells [fold]	EC50 (M); STAT3-Luc reporter, CTLL2/STAT3-Luc cells [M]	Binder
1.04	1.1	–	B1
4.52	4.52	1.76e-10	B2
5.41	5.9	2.6e-10	B3
10	10.1	8.05e-10	B4
1.06	1.11	–	B5
8.93	10.2	1.33e-09	B6
1.12	1.16	–	B7
1.37	27.5	–	B8

Molecular target: T1, murine IL12 receptor complex (IL12Rβ1 …)
Test: cell-based or functional assay
Remark: another data set of the same source

EC50 (M); STAT3-Luc reporter, CTLL2/STAT3-Luc cells [M]	Fold induction at 6.25 nM; STAT3-Luc reporter, CTLL2/STAT3-Luc cells [fold]	Max fold induction; STAT3-Luc reporter, CTLL2/STAT3-Luc cells [fold]	Binder
1.8e-11	5.96	7.83	B9
1.16e-11	7.52	15.4	B10
1.72e-11	7.01	8.48	B11
6.47e-11	9.58	9.89	B12
